Values of other authors in publication PMC9739296.

Target: DR4 (Homo sapiens) (UniProt O00220)
Sequence of UniProt O00220 (O00220 24-468): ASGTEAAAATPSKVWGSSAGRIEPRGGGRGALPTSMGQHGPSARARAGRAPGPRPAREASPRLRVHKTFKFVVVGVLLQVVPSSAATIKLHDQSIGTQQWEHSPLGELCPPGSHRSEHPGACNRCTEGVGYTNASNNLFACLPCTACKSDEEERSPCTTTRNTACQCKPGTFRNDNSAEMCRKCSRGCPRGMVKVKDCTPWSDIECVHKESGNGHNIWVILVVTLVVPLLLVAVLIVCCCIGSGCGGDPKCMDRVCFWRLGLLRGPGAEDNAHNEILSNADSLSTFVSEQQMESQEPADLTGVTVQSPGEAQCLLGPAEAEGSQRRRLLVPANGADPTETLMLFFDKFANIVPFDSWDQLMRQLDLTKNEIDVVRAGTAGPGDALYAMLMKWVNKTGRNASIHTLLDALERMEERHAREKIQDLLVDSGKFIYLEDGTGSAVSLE

Kd: 70 nM
Substance: TRAIL (from UniProt P50591)
